T1: GST-Nuf2^1–169 (UniProt Q9BZD4 1-169)
T1 construct: Nuf2 (nuclear filament-containing protein 2), residues 1-169, with the calponin-homology domain
T1 sequence (looked up): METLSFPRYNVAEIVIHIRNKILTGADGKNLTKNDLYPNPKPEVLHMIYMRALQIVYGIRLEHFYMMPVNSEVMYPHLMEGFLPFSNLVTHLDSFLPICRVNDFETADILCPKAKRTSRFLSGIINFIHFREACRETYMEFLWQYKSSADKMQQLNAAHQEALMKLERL

T2: GST-Hec1^1–196 (UniProt O14777 1-196)
T2 construct: Hec1 (highly expressed in cancer 1)
T2 sequence (looked up): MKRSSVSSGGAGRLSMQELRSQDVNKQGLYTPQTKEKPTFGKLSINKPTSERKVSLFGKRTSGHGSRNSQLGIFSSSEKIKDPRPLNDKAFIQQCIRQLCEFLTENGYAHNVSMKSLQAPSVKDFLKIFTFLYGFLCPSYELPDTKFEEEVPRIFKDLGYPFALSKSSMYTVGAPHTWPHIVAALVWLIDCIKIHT


Legend:
[1] = target: T1, GST-Nuf2^1–169; assay: pull-down; GST-Hec1^1–196, GST-Hec1^1–196-9D or GST-Nuf2^1–169 on agarose beads as affinity matrices; MBP-tagged Mps1 truncations purified from E. coli; SDS-PAGE and anti-MBP blot; conditions: both partners purified
[2] = target: T2, GST-Hec1^1–196; assay: as above; conditions: both partners purified
[3] = target: the molecule itself; assay: pull-down; GST-Mps1^C342-WT, GST-Mps1^C342-KD or GST-Mps1^PK-KD on agarose beads; purified 6× His-tagged Mps1^C342-WT or -KD; SDS-PAGE and anti-6× His blot (Figure 3C, Supplementary Figure S4E)

| Binder | binding result [1] | binding result [2] | binding result [3] |
| --- | --- | --- | --- |
| MBP-tagged Mps1 C-terminal extension (CTE, amino acids 193–300) (domain or fragment, human, UniProt P33981 193-300, looked up, Mps1, human, C-terminal extension of N300, amino acids 193-300; source: Escherichia coli, purified) QLLSEEEKKNLSASTVLTAQESFSGSLGHLQNRNNSCDSRGQTTKARFLYGENMPPQDAEIGYRNSLRQTNKTKQSCPFGRVPVNLLNSPDCDVKTDDSVVPCFMKRQ | binds | binds |  |
| MBP-tagged Mps1 tetratricopeptide repeat domain (TPR, amino acids 62–192) (domain or fragment, human, UniProt P33981 62-192, looked up, Mps1, human, tetratricopeptide repeat domain, amino acids 62-192; also called Mps1^TPR; source: Escherichia coli, purified) PEDWLSLLLKLEKNSVPLSDALLNKLIGRYSQAIEALPPDKYGQNESFARIQVRFAELKAIQEPDDARDYFQMARANCKKFAFVHISFAQFELSQGNVKKSKQLLQKAVERGAVPLEMLEIALRNLNLQKK | binds | binds |  |
| Mps1^C342-WT fragment (amino acids 516–857), GST-tagged or 6× His-tagged (domain or fragment, human, UniProt P33981 516-857, looked up, Mps1, human, amino acids 516-857: protein kinase domain (516-792) and C-tail (793-857); Two differently tagged copies of one fragment: the GST copy was the bait on beads, the 6× His copy the prey; each chain bears only one of the two tags; also called GST-Mps1^C342-WT; 6× His-Mps1^C342-WT; source: recombinant, purified) ECISVKGRIYSILKQIGSGGSSKVFQVLNEKKQIYAIKYVNLEEADNQTLDSYRNEIAYLNKLQQHSDKIIRLYDYEITDQYIYMVMECGNIDLNSWLKKKKSIDPWERKSYWKNMLEAVHTIHQHGIVHSDLKPANFLIVDGMLKLIDFGIANQMQPDTTSVVKDSQVGTVNYMPPEAIKDMSSSRENGKSKSKISPKSDVWSLGCILYYMTYGKTPFQQIINQISKLHAIIDPNHEIEFPDIPEKDLQDVLKCCLKRDPKQRISIPELLAHPYVQIQTHPVNQMAKGTTEEMKYVLGQLVGLNSPNSILKAAKTLYEHYSGGESHNSSSSKTFEKKRGKK |  |  | binds |

— PMC7493027, “Mps1 dimerization and multisite interactions with Ndc80 complex enable responsive spindle assembly checkpoint signaling” (Journal of Molecular Cell Biology, 2020)
